In paper PMC10425332, “Programming conformational cooperativity to regulate allosteric protein-oligonucleotide signal transduction”:

What was measured:
[1] = molecular target: T1, thrombin (UniProt P00734;P00734 328-363;364-622); experiment: PAGE and FAM/BHQ1 fluorescence (release of strand D); Mg2+; indirect read-out; complexes annealed in 1x TAE/Mg2+ buffer, DNA complex about 0.5-0.6 uM; thrombin trigger 2 h at room temperature (cell experiments); pH and Mg2+ concentration n
[2] = molecular target: T1, thrombin; experiment: PAGE and fluorescence (release of strand D); Mg2+; indirect read-out; complexes annealed in 1x TAE/Mg2+ buffer, DNA complex about 0.5-0.6 uM; thrombin trigger 2 h at room temperature (cell experiments); pH and Mg2+ concentration n
[3] = molecular target: T1, thrombin; experiment: PAGE (release of DGFP); Mg2+; indirect read-out; complexes annealed in 1x TAE/Mg2+ buffer, DNA complex about 0.5-0.6 uM; thrombin trigger 2 h at room temperature (cell experiments); pH and Mg2+ concentration n

B1: complex CDAB (15Apt and 29Apt thrombin aptamers on B and A) (structured_DNA)
DNA 1: AATGGTCCTATGATTCCGTTTTTTTTTTTTGTCACTAGCTACTAGGTAGCTAGTGACGTTATTTTTTTTATGAGAGAGAGTGTGTCC
DNA 2: TAACGTCACTAGCTACCTTTTTTTTTTTTTTTTTTTTTTTTTTTTTTTTTTTTTTTT
DNA 3: GGACACACTCTCTCTCATTTTAGTCCGTGGTAGGGCAGGTTGGGGTGACT
DNA 4: GGTTGGTGTGGTTGGTTTCGGAATCATAGGACCATT
B1: binds [1].

B2: single-trigger-site complex with E-29apt (structured_DNA)
DNA 1: B1 DNA 1
DNA 2: B1 DNA 2
DNA 3: GGACACACTCTCTCTCATTTTAGTCCGTGGTAGGGCAGGTTGGGGTGACTTTTCGGAATCATAGGACCATT
B2: binds [2].

B3: complex-G C3DGFPAB (T1 3 nt, T2 12 nt) (structured_DNA)
DNA 1: AATGGTCCTATGATTCCGTTTTTTTTTTTTTGCACGCTGCCGTTACGGCAGCGTGCAGCTCTTTTTTTTATGAGAGAGAGTGTGTCC
DNA 2: GAGCTGCACGCTGCCGTCTTTTTTTTTTTTTTTTTTTTTTTTTTTTTTTTTTTTTTTTT
DNA 3: B1 DNA 3
DNA 4: B1 DNA 4
B3: binds [3].
